B1: Hairpin Ribozyme (parent)
chain: GUCCUCUUUCACGUGCGCGUGAAAGAGAGAAGUGAACCAGAGAAACACACGUUGUGGUAUAUUACCUGGUA

Variants of: B1
Assay: self-cleavage, relative activity (ratio to wild type); higher = more cleavage; co-transcriptional

Row | Variant | self-cleavage
1 | A31C G68C | 0.135
2 | C6A A64C | 0.148
3 | C37A C66U | 0.179
4 | G19C A26G | 0.692
5 | G27C U67G | 0.0952
6 | G34A A44C | 0.223
7 | A24C G42U | 0.374
8 | C12U A30G | 0.173
9 | U5A G54A | 0.192
10 | A26U A61U | 0.15
11 | C4U U7C | 0.193
12 | A11C A35C | 0.764
13 | G32A A35C | 0.177
14 | C18U A64U | 0.109
15 | A23C | 0.822
16 | C6A A11G | 0.635
17 | G56C G57C | 0.173
18 | A22G U67A | 0.239
19 | A39G A41U | 0.474
20 | C4U G42U | 0.129
21 | A30C G40U | 0.0963

Row | Variant | self-cleavage
22 | A11G G68A | 0.277
23 | C12U A24G | 0.892
24 | G27C C48U | 0.231
25 | G54C G57U | 0.217
26 | A41G C46G | 0.116
27 | G1U C46G | 0.16
28 | A39C A45C | 0.174
29 | U7C U60C | 0.905
30 | G27A U60A | 0.334
31 | C38U A49C | 0.245
32 | G27C A41G | 0.234
33 | A11G G56U | 0.105
34 | U2C U67A | 0.0712
35 | G29C C66A | 0.182
36 | G13U U53C | 0.477
37 | G54U A61U | 0.268
38 | C4G G19U | 0.225
39 | U53C C65U | 0.274
40 | C66A G68U | 0.105
41 | A11U G34C | 1.43
42 | C12G G40C | 0.117

Row | Variant | self-cleavage
43 | C6U A35C | 0.896
44 | G17C A23G | 0.458
45 | C4G U9G | 0.164
46 | G19A G69C | 0.129
47 | G17A C38U | 0.512
48 | A31U U70G | 0.27
49 | A24U A31G | 0.392
50 | U9C A30G | 0.336
51 | G13A A31C | 0.11
52 | A36U C38A | 0.0871
53 | U20G C50U | 0.42
54 | G25U G29U | 0.126
55 | A36U A71C | 0.959
56 | U5G C10A | 0.235
57 | U5G A47C | 0.102
58 | C46G U63G | 0.0876
59 | C18G U58A | 0.632
60 | C18U C65A | 0.88
61 | U58G U70A | 0.849
62 | C16G A22G | 0.828
63 | G21U A35U | 0.626

Row | Variant | self-cleavage
64 | A47U U53C | 0.0703
65 | A49C G57A | 0.193
66 | C16U U20A | 0.817
67 | A28U A43U | 0.132
68 | G17C A61C | 0.078
69 | G34C A39G | 1.03
70 | A31G G34U | 1.54
71 | C4A U60C | 0.521
72 | C48U U67G | 0.0927
73 | G29A A43G | 0.205
74 | G15U A31G | 0.795
75 | U7G A59U | 0.116
76 | G32A U58A | 0.0567
77 | G1A G68U | 0.176
78 | C4U G29C | 0.108
79 | G56C U67G | 0.203
80 | C50G G68U | 0.22
81 | A26U G54U | 0.34
82 | G25U G51C | 0.589
83 | A22U U60G | 0.611
